From a protein production outcome set (Wang et al. 2014)

Assay: label from the status in PepcDB records

Q: For “MEKPDINVAEAWEQYWNKTLVNATPVLWDANVERAVVVDLPRFQSFFDTELPLIDFACGNGTQTKFLSQFFPRVIGFDVSKTALEMASKENTAANISYRLLDGLVPEQAAQIHSEIGDANIYMRTGFHHIPVEKRELLAQSLRTLLGKQGVMYLIELGTGCIEFFNSLLEKYGKLPYELSLVMEHGIRPGIFTTEDIELYFPDFEILSQGESLFQSIHKLPDGNYATPPAFWAVIKRHLEHHHHHH”, which protein production is on record?
A: The protein production was “not failed”.

Q: With “MEKPGGFWIPKKSNKESSWEELAFAEDDAAGSLWPPRSYTCSFCRREFKSAQALGGHMNVHRRDRARLKQADDQYLFPKSSSSPEYPSHKDSDNIHETSCYTLVFNTKPNYFKTQHSCVIDLSSSSSLPYLTPSRVSSGLPGKQHTSSSPPSFVVEPSKNSKYIPSSSPWSCPSTVVEQKSCDLYEIPAMEGEKKRKTESDVPKIGHKAKLSLGNTTDLSVSMNLVIHQSFPITAHGSDEEIGRVDIRKRRRRHESPSQQSIFISSLSCKSDIITRNEESKHKGDRFEDLDLELRLGTDPPKGI” as the sequence, how does the protein production read?
A: Its protein production is “failed”.

Q: Which protein production does the source give for “MEKQNLKNTEVNLIYGVDDDLDLPKKVLFGLQHIFAAFGGIIVVPLVIATSLGFDSKVTTALISASILGSGLATIIQAKGVGKVGARVACIMGTDFTFVSPAISVGSVLGLPGIIGATILGSLFEVILSFFIKPLMKFFPPLVTGTVVALIGLTLLPVSIDWAAGGAGSANYASLENLAVAMFVLVITLLLNNYGKGMISSASILIGIVVGYIVCIPLGLVDFTPVKEASWLSFPKILEFGVTFDAKAVMAFIPAYFVATIGTVGCLKAIGETSNIDIGDKRVAAGVLSDGVGSALGGLVGSCPNTSFSQNIGIISLTKVASRHVAVMAGILLVILGFLPKVAAIITGIPNPVLGGVGIMMFGTVAAAGIRTLSNIKLTERNLLIIAISMGLGLGVTFRPDVIHNLPEAIRMIFSSGISTGTIAALILNAVLKESPTSMEFENMYDEETKAS” here?
A: The protein production was “failed”.

Q: With “MEKTIIAALLMLISLISYAQGLMWTAKAELNMSSMSNVEESKMHPGFYAGIGAGYVIDETRSVRPSLLFTMKGVKQDYKF” as the sequence, how does the protein production read?
A: Its protein production is “failed”.

Q: With “MEKVTKMISRMMVRVVTVAFALSLVAVACHEAEARAGGGRSFGSRGTRTYRPPTRTVDPAPASRPQPAPAVPQTFPQQRQGGSFLRSMAGGIVGGLLGGMLFRSLGFAGPGAGGVGLFDILLIGGILYLVYRFVASRRREAAATAGRAPDWSREEPVTPQQYRYGQPAESVPAAGADSGLAHVRQMDGSFSEEQFRQLAQDVFFRVQGAWTRRDLSSAREVLAPEMERALQGDVAELKARGQVNRLENIAVRQVELVEAWQEEGCDFITVRFLANLLDYTTDEEGRVLSGSDREPVKFEEFWTFTRPVGPNPWKLSAIQQA” as the sequence, how does the protein production read?
A: Its protein production is “failed”.

Q: For “MEKYIHSVEDYHRLISYLENNLNYEDSVVNHVIYVIAKTGMRYGEIIGLTNNDTSLDEHYLHTYKRYNTSTWKWTNAKNESSKRYIPIDDKIVAALSNMIKERERINSLLRIKNKEEFLFFHYGLEHGIPSVATVNKALKKILKKLDIEPIITTKGLRHTYGSYLLHNNIDMGVVARILGHKDIQMLIQVYGHTLTEKIDKEFKEVEQIMNRILEHHHHHH”, which protein production is on record?
A: Its protein production is “failed”.

Q: Which protein production does the source give for “MELDDAYANGAYIEGAADYPPRWAASAEDFRNSLQDRARLNLSYGEGDRHKFDLFLPEGTPVGLFVFVHGGYWMAFDKSSWSHLAVGALSKGWAVAMPSYELCPEVRISEITQQISQAVTAAAKEIDGPIVLAGHSAGGHLVARMLDPEVLPEAVGARIRNVVPISPLSDLRPLLRTSMNEKFKMDADAAIAESPVEMQNRYDAKVTVWVGGAERPAFLDQAIWLVEAWDADHVIAFEKHHFNVIEPLADPESDLVAVITA” here?
A: The protein production was “not failed”.

Q: Which protein production does the source give for “MELELDDDVFFADISKQLNLLITDEDEQNPISLSSSVSFQGLFRGNYQTSATPYMMYNEQINYNVIRESKGTGVFIPRSSQPRRKHNHHPHQKKQGRFIGSFIPKQQFPHHGHDNNLTTLNNNNQESITFHHASTNPRRTYRDAASLFT” here?
A: The protein production was “failed”.

Q: For “MELFTEAWAQAYCRKLNESEAYRKAASTWEGSLALAVRPDPKAGFPKGVAVVLDLWHGACRGAKAVEGEAEADFVIEADLATWQEVLEGRLEPLSALMRGLLELKKGTIAALAPYAQAAQELVKVAREVA”, which protein production is on record?
A: Its protein production is “not failed”.

Q: Which protein production does the source give for “MELIEVQEGKAKILIPKAESIYDSPVFYNPRMALNRDIVVVLLNILNPKIVLDALSATGIRGIRFALETPAEEVWLNDISEDAYELMKRNVMLNFDGELRESKGRAILKGEKTIVINHDDANRLMAERHRYFHFIDLDPFGSPMEFLDTALRSAKRRGILGVTATDGAPLCGAHPRACLRKYLAVPLRGELCHEVGTRILVGVIARYAAKYDLGIDVILAYYKDHYFRAFVKLKDGARKGDETLEKLGYIYFDDKTGKFELEQGFLPTRPNAYGPVWLGPLKDEKIVSKMVKEAESLSLARKKQALKLLKMIDQELDIPLFYDTHAIGRRLKIETKKVEEIISALREQGYEATRTHFSPTGIKTSAPYEVFIETIKRI” here?
A: Its protein production is “not failed”.

Q: With “MELIRFSISIPSKLLEKFDQIIEEIGYENRSEAIRDLIRDFIIRHEWEVGNEEVAGTITIVYNHDEGDVVKALLDLQHEYLDEIISSLHVHMDEHNCLEVIVVKGEAKKIKMIADKLLSLKGVKHGKLVMTSTGKELV” as the sequence, how does the protein production read?
A: Its protein production is “not failed”.

Q: For “MELKMKTRALVIGLGSMGKRRVRNLLALGNIDVFGFDVRADRNEEASSKYQITTFDDVQKAFEDVKPEVVVISTPPQLHMTYANMCFDARVPCFIEASVTDIEEIRELGKKALEASLVIAPSCTMRYFPGPKKVKELLEQNVIGSPLSVNYQTGQYLPDWHPWEDIQDFYVSKRESGGAREIVPFELTWLNDLFSHDVKALASAVAKQTDMNADIDDIYHCLLQYDSGVLLNLTVEVISRPLATREMLILGSKGKIKFSADSNSVSYCNLETDGWVESTWEEGTVESQYINPEEPYINEMKDFVTAALAGDQSLFPNNLQDDVKVLEVLEALEEVDQLKGNKA”, which protein production is on record?
A: Its protein production is “failed”.

Q: With “MELLLGIVIVVTCWMVVRIIRSSKNQEGYKRWRAGNYASENPYAKEKASGPLSQGLFSKRVRTTGVRRFDDGAIRWCANLLATEESRLREVLDYIPRQYTCFHVRKRSGGFRYISAPAGDFRSMQQTIYHRILLLANIHPAVTGFCPGKSVSDNARVHLGRKNVLKVDLHDFFPSIRSPRVRAAFREMGYSRPIAKVLAELCCLRCCLPQGAPTSPALSNIIAYPMDKKMMALAGEYGLVYTRYADDLTFSGDYLPKDEVLVRIHRIIREEGFTMNVKKTRFLSEHKRKIITGVSVSSGKKMTLPKVKKREIRKNVHYVLTKGLVGHQEHIGSTDPVYLKRLLGSLCYWRSIEPDNRYVSDSITALKRLM” as the sequence, how does the protein production read?
A: The protein production was “failed”.

Q: Which protein production does the source give for “MELNISESRSRSIRCIVKLGGAAITCKNELEKIHDENLEVVACQLRQAMLEGSAPSKVIGMDWSKRPGSSEISCDVDDIGDQKSSEFSKFVVVHGAGSFGHFQASRSGVHKGGLEKPIVKAGFVATRISVTNLNLEIVRALAREGIPTIGMSPFSCGWSTSKRDVASADLATVAKTIDSGFVPVLHGDAVLDNILGCTILSGDVIIRHLADHLKPEYVVFLTDVLGVYDRPPSPSEPDAVLLKEIAVGEDGSWKVVNPLLEHTDKKVDYSVAAHDTTGGMETKISEAAMIAKLGVDVYIVKAATTHSQRALNGDLRDSVPEDWLGTIIRFSK” here?
A: The protein production was “failed”.

Q: For “MELPAVGEHVFAVESIEKKRIRKGRVEYLVKWRGWSPKYNTWEPEENILDPRLLIAFQNRERQEQLMGYRKRGPKPKPLVVQVPTFARRSNVLTGLQDSSTDNRAKLDLGAQGKGQGHQYELNSKKHHQYQPHSKERAGKPPPPGKSGKYYYQLNSKKHHPYQPDPKMYDLQYQGGHKEAPSPTCPDLGAKSHPPDKWAQGAGAKGYLGAVKPLAGAAGAPGKGSEKGPPNGMMPAPKEAVTGNGIGGKMKIVKNKNKNGRIVIVMSKYMENGMQAVKIKSGEVAEGEARSPSHKKRAADERHPPADRTFKKAAGAEEKKVEAPPKRREEEVSGVSDPQPQDAGSRKLSPTKEAFGEQPLQLTTKPDLLAWDPARNTHPPSHHPHPHPHHHHHHHHHHHHAVGLNLSHVRKRCLSETHGEREPCKKRLTARSISTPTCLGGSPAAERPADLPPAAALPQPEVILLDSDLDEPIDLRCVKTRSEAGEPPSSLQVKPETPASAAVAVAAAAAPTTTAEKPPAEAQDEPAESLSEFKPFFGNIIITDVTANCLTVTFKEYVTV”, which protein production is on record?
A: The protein production was “failed”.

Q: Which protein production does the source give for “MELREVAAVSGRGGLFKILKPTKNGVILEAIDPSKKRFVAGANERVSILNEISIYTTDKDGSVPLESVLHKIHAKYGADTKITGKSSNDELGNFLSSILPEYDREKVYHSDIKKLANWYAILQANFPELLVAKKEAAPKTEAKPAEAKEEKVKAVKEEKAEAPAPAAKKAAAKKVKEVSEEATEKPAAKKAAAKKTAKAKGE” here?
A: Its protein production is “failed”.
